Results taken from patent US20260242478A1 (published 2026).
Where no end group is shown, it is not given here.

B1: Phage-1931 (peptide)
peptide: WDRLCTPAWMCTGF
notes: Clonal phage of the Peptide-180 library, tested as crude supernatant; not shown: fused to the pIII filament protein of the bacteriophage
B2: Phage-1933 (peptide)
peptide: VVQWCIPAWMCAAQ
modifications: cysteine pairing not given here; also: displayed as fusion to phage pIII
notes: as for B1
B3: Phage-1930 (peptide)
peptide: VQNWCIPAWMCQGM
notes: as for B1
B4: Phage-1924 (peptide)
peptide: TEKLCIPEWMCFGM
notes: as for B1
B5: Phage-1922 (peptide)
peptide: LVNWCIPMWMCEGF
notes: as for B1
B6: Phage-1928 (peptide)
peptide: ELHLCIPRGMCKFR
notes: as for B1
B7: Phage-1932 (peptide)
peptide: DFKWCTPMWMCEHL
notes: as for B1
B8: Phage-1921 (peptide)
peptide: VDRWCVPVWMCEGL
modifications: cysteine pairing not given here; also: displayed as fusion to phage pIII
notes: as for B1
B9: Phage-1925 (peptide)
peptide: TEMWCKPAWMCTGF
notes: as for B1
B10: Phage-1923 (peptide)
peptide: VEKWCIPTWMCELS
notes: as for B1
B11: Phage-1926 (peptide)
peptide: FAKWCTPEWMCVGF
notes: as for B1
B12: Phage-1927 (peptide)
peptide: WENWCTPAWMCSHM
notes: as for B1
B13: Phage-1929 (peptide)
peptide: AEKWCIPAWMCEAM
notes: as for B1
B14: Phage-1935 (peptide)
peptide: VEKLCKPIWMCNWQ
notes: as for B1
B15: Phage-1934 (peptide)
peptide: VSIWCRPAWMCESG
notes: as for B1
B16: Phage-1953 (peptide)
peptide: PVKWCIPTWMCAPV
modifications: cysteine pairing not given here; also: fused to phage pIII (clonal phage display)

Tests used:
[1] = target: T1, Anti-PSMA Fab (SEQ ID NOs: 19, 20); assay: phage binding ELISA; biotinylated PSMA Fab on neutravidin plate, clonal phage supernatant, anti-M13 HRP detection;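 further: wells were preincubated with blocking buffer either containing PSMA antigen or without it before crude phage supernatant was added, briefly incubated, then washed prior to detection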
T1 construct: Biotinylated and captured on neutravidin coated plates in the phage ELISA; also called 006 PSMA Fab

[2] = target: T1, Anti-PSMA Fab (SEQ ID NOs: 19, 20); assay: phage binding ELISA; PSMA Fab on plate pre-incubated with PSMA antigen as competitor, anti-M13 HRP detection;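 further: crude clonal phage supernatants added without washing to wells preincubated with PSMA in blocking buffer, compared with wells receiving blocking buffer only, then bound phage detected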
[3] = target: T2, Anti-PSMA Fab (SEQ ID NOs: 19, 20); assay: phage binding ELISA; clonal phage supernatant on biotinylated PSMA Fab captured on neutravidin plates, anti-M13 HRP detection
T2 construct: Biotinylated PSMA Fab captured on neutravidin coated plates in the phage ELISA; also called 006 PSMA Fab

[4] = target: T2, Anti-PSMA Fab (SEQ ID NOs: 19, 20); assay: phage binding ELISA on captured PSMA Fab pre-incubated with PSMA antigen as competitor, anti-M13 HRP detection
[5] = target: T3, Anti-PSMA Fab (SEQ ID NOs: 19, 20) (biotinylated (site not stated)); assay: phage ELISA; biotinylated PSMA Fab on neutravidin plate, wells pre-incubated with PSMA antigen as competitor, anti-M13 HRP detection
T3 construct: also called 006 PSMA Fab

[6] = target: T3, Anti-PSMA Fab (SEQ ID NOs: 19, 20); assay: phage ELISA; biotinylated PSMA Fab on neutravidin plate, clonal phage supernatant, anti-M13 HRP detection;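 further: wells preincubated with PSMA antigen in blocking buffer or with blocking buffer only before clonal phage were added for a short incubation, then bound phage detected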
[7] = target: T4, Anti-PSMA Fab (SEQ ID NOs: 19, 20); assay: phage binding ELISA; clonal phage supernatant on biotinylated PSMA Fab captured on neutravidin plate, wells pre-incubated with PSMA antigen (competitor: PSMA); anti-M13-HRP detection
T4 construct: also called 006 PSMA Fab

[8] = target: T4, Anti-PSMA Fab (SEQ ID NOs: 19, 20); assay: phage binding ELISA; clonal phage supernatant on biotinylated PSMA Fab captured on neutravidin plate; anti-M13-HRP detection

Binder	Phage binding ELISA, Anti-PSMA Fab signal in the presence of PSMA [5]	Phage binding ELISA, Anti-PSMA Fab (SEQ ID NOs: 19, 20) signal [6]	Anti-PSMA Fab signal in the presence of PSMA [7]	Anti-PSMA Fab (SEQ ID NOs: 19, 20) signal [8]	other results
MPKWCTPAWMCAHQ (cysteine pairing not given here; also: displayed as fusion to phage pIII) [Phage-1952]					Phage binding ELISA, Anti-PSMA Fab (SEQ ID NOs: 19, 20) signal [1]: 1.93; Phage binding ELISA, Anti-PSMA Fab signal in the presence of PSMA [2]: 0.0835
EKIWCVPAWMCTWL [Phage-1918]					Anti-PSMA Fab (SEQ ID NOs: 19, 20) signal [3]: 1.99; Anti-PSMA Fab signal in the presence of PSMA [4]: 0.121
B1	0.104	1.97			
B2	0.0955	1.97			
IEKMCKPAWMCWAD [Phage-1917]					Anti-PSMA Fab (SEQ ID NOs: 19, 20) signal [3]: 2; Anti-PSMA Fab signal in the presence of PSMA [4]: 0.0706
GEIWCIPPWMCYAP [Phage-1955]					Phage binding ELISA, Anti-PSMA Fab (SEQ ID NOs: 19, 20) signal [1]: 1.92; Phage binding ELISA, Anti-PSMA Fab signal in the presence of PSMA [2]: 0.0825
WENWCRPEWMCTGL [Phage-1940]			0.0907	1.95	
B3	0.0574	1.98			
B4	0.0644	1.99			
FPKWCTPAWMCERS [Phage-1937]			0.0909	1.96	
MEKWCIPSWMCDVN [Phage-1938]			0.0785	1.96	
VSKLCIPMWMCETS [Phage-1919]					Anti-PSMA Fab (SEQ ID NOs: 19, 20) signal [3]: 1.99; Anti-PSMA Fab signal in the presence of PSMA [4]: 0.064
B5	0.107	1.99			
LEKWCIPTWMCELF [Phage-1943]			0.175	1.94	
ARRSCVFRRGCVFM [Phage-1950]			0.0701	1.93	
B6	0.0668	1.98			
WINWCTPEWMCMGF [Phage-1947]			0.24	1.94	
B7	0.106	1.97			
DGKWCIPPWMCQST [Phage-1944]			0.077	1.94	
B8	0.124	1.99			

Binder	Phage binding ELISA, Anti-PSMA Fab signal in the presence of PSMA [5]	Phage binding ELISA, Anti-PSMA Fab (SEQ ID NOs: 19, 20) signal [6]	Anti-PSMA Fab signal in the presence of PSMA [7]	Anti-PSMA Fab (SEQ ID NOs: 19, 20) signal [8]	other results
VEKLCRPSWMCEHM [Phage-1939]			0.0564	1.96	
GEYWCIPSWMCQLY [Phage-1920]					Anti-PSMA Fab (SEQ ID NOs: 19, 20) signal [3]: 1.99; Anti-PSMA Fab signal in the presence of PSMA [4]: 0.179
WPKWCTPPWMCFQD [Phage-1936]			0.148	1.96	
B9	0.0938	1.99			
FTIWCIPEWMCLHE [Phage-1916]					Anti-PSMA Fab (SEQ ID NOs: 19, 20) signal [3]: 2; Anti-PSMA Fab signal in the presence of PSMA [4]: 0.0999
B10	0.0767	1.99			
B11	0.125	1.99			
HEKWCIPEWMCVVT [Phage-1954]					Phage binding ELISA, Anti-PSMA Fab (SEQ ID NOs: 19, 20) signal [1]: 1.92; Phage binding ELISA, Anti-PSMA Fab signal in the presence of PSMA [2]: 0.0642
B12	0.1	1.98			
TEMWCKPSWMCYGF [Phage-1946]			0.101	1.94	
B13	0.0668	1.98			
AEHWCIPSWMCAGF (cysteine pairing not given here; also: displayed as fusion to phage pIII) [Phage-1951]					Phage binding ELISA, Anti-PSMA Fab (SEQ ID NOs: 19, 20) signal [1]: 1.93; Phage binding ELISA, Anti-PSMA Fab signal in the presence of PSMA [2]: 0.104
B14	0.0992	1.96			
DIKLCMPEWMCLGF [Phage-1949]			0.0792	1.93	
MDNWCTPSWMCVGF [Phage-1948]			0.0794	1.93	
WENWCTPRWMCEGF [Phage-1945]			0.173	1.94	
B15	0.0809	1.97			
B16					Phage binding ELISA, Anti-PSMA Fab (SEQ ID NOs: 19, 20) signal [1]: 1.92; Phage binding ELISA, Anti-PSMA Fab signal in the presence of PSMA [2]: 0.0978
VEKWCVPQWMCGQM [Phage-1942]			0.0869	1.95	
GEKWCIPEWMCTTW [Phage-1941]			0.135	1.95	
